# Target: NLRP3 protein, purchased recombinant (UniProt Q96P20 1-1036)
# Test: SPR
# NLRP3 protein, purchased recombinant, sequence (Q96P20 whole entry): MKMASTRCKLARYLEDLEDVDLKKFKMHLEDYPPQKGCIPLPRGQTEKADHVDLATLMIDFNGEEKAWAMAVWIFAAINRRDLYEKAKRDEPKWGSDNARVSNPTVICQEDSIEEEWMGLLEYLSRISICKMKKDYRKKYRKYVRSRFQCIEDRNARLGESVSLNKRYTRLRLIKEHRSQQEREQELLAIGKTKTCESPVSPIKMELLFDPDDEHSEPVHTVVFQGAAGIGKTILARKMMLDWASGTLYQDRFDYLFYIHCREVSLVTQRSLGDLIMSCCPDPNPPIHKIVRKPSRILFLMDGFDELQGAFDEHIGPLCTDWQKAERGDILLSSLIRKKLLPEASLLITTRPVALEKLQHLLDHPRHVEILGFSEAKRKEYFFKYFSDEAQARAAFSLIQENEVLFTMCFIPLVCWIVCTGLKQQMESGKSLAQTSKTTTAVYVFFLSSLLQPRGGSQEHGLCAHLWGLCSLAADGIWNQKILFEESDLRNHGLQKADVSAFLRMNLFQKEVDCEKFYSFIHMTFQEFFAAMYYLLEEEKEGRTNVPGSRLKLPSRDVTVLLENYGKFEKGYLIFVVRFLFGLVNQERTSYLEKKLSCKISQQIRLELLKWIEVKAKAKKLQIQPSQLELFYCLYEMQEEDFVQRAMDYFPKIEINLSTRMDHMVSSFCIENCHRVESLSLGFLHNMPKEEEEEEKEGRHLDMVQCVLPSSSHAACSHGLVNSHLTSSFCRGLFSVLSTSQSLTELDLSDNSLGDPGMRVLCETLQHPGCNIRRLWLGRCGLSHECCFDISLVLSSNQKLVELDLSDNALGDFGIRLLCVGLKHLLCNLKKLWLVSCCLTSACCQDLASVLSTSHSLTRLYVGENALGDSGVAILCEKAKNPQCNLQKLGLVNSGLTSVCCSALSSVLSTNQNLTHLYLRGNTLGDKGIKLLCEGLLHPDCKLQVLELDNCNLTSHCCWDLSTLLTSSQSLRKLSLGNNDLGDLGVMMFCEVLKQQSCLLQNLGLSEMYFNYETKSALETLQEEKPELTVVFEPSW
binder,measurement,value
"ASCT2 protein (alanine-serine-cysteine transporter 2), purchased recombinant (natural protein, UniProt Q15758 1-541, looked up) MVADPPRDSKGLAAAEPTANGGLALASIEDQGAAAGGYCGSRDQVRRCLRANLLVLLTVVAVVAGVALGLGVSGAGGALALGPERLSAFVFPGELLLRLLRMIILPLVVCSLIGGAASLDPGALGRLGAWALLFFLVTTLLASALGVGLALALQPGAASAAINASVGAAGSAENAPSKEVLDSFLDLARNIFPSNLVSAAFRSYSTTYEERNITGTRVKVPVGQEVEGMNILGLVVFAIVFGVALRKLGPEGELLIRFFNSFNEATMVLVSWIMWYAPVGIMFLVAGKIVEMEDVGLLFARLGKYILCCLLGHAIHGLLVLPLIYFLFTRKNPYRFLWGIVTPLATAFGTSSSSATLPLMMKCVEENNGVAKHISRFILPIGATVNMDGAALFQCVAAVFIAQLSQQSLDFVKIITILVTATASSVGAAGIPAGGVLTLAIILEAVNLPVDHISLILAVDWLVDRSCTVLNVEGDALGAGLLQNYVDRTESRSTEPELIQVKSELPLDPLPVPTEEGNPLLKHYRGPAGDATVASEKESVM",Kd,~3.45 µM

# Reference: article PMC9978855 (Acta Pharmaceutica Sinica. B, 2022)
